Laboratory results published in patent US10919943B2, “Mutant proteins enabling agrochemical control of plant gene expression” (The Regents of the University of California, priority 2016, dated 2021).

System: HAB1
Assay: Yeast two hybrid of pBD-PYR1 site saturation mutants with pACT-HAB1 on 10 μM ABA, β-galactosidase staining
Type: cell-based, Arabidopsis
Parameters: key: x: Mutations in PYR1 that disrupt ABA-induced binding to PYR1 to HAB1
Conditions: S. cerevisiae Y190, 10 μM ABA; dead = lack of visible staining in comparison to wild type control
From the text: To systematically identify mutations in PYR1 that disrupt its binding to HAB1, we utilized a collection of saturating mutations that contain all possible single amino acid substitutions in 24 conserved interface residues involved in binding HAB1, which was previously constructed for the purpose of engineering constitutively active ABA receptor variants (Mosquna et al., 2011). The interface residues previously mutagenized in this collection are the following: H60, F61, I62, K63, I84, S85, G86, L87, P88, A89, H115, R116, L117, P148, G150, N151, D154, D155, T156, M158, F159, T162, L166, K170. This set was made by mutagenizing a pBD-PYR1 template that encodes a GAL4-DNA binding domain fusion to PYR1, which can be used to assess receptor-HAB1 binding in S. cerevisiae strains co-transformed with pACT-HAB1, which expresses a GAL4 activation domain fusion to HAB1. Mutant pBD-PYR1 clones from the collection are maintained in S. cerevisiae strain Y190 co-transformed with pACT-HAB1. The test strains were spotted onto agar plates containing synthetic dextrose dropout media lacking leucine and tryptophan [SD (-Leu, -Trp)] medium supplemented with 10 μM ABA. After incubating the test plates at 30° C. for two days, colonies were chloroform lysed and stained to reveal […] expression levels and “dead” mutants were defined by lack of visible staining in comparison to a wild type control. This effort defined 237 mutations that disrupt ABA-induced binding of PYR1 to HAB1 (Table 1). Premade yeast drop out supplements (Clontech) were utilized in this and other examples for media preparation, amino acids and other standard chemicals were purchased from Sigma-Aldrich (USA). The naturally occurring (+)-ABA isomer was used in all experiments and purchased from Biosynth Ag (Switzerland).

Molecule	Mutations in PYR1 that disrupt ABA-induced binding to PYR1 to HAB1
P88W: PYR1 mutant (protein, UniProt O49686 1-191, looked up, variant P88W) Abscisic acid receptor PYR1: MPSELTPEERSELKNSIAEFHTYQLDPGSCSSLHAQRIHAPPELVWSIVRRFDKPQTYKHFIKSCSVEQNFEMRVGCTRDVIVISGLWANTSTERLDILDDERRVTGFSIIGGEHRLTNYKSVTTVHRFEKENRIWTVVLESYVVDMPEGNSEDDTRMFADTVVKLNLQKLATVAEAMARNSGDGSGSQVT	x
P88C: PYR1 mutant (protein, UniProt O49686 1-191, looked up, variant P88C) Abscisic acid receptor PYR1: MPSELTPEERSELKNSIAEFHTYQLDPGSCSSLHAQRIHAPPELVWSIVRRFDKPQTYKHFIKSCSVEQNFEMRVGCTRDVIVISGLCANTSTERLDILDDERRVTGFSIIGGEHRLTNYKSVTTVHRFEKENRIWTVVLESYVVDMPEGNSEDDTRMFADTVVKLNLQKLATVAEAMARNSGDGSGSQVT	x
P88Y: PYR1 mutant (protein, UniProt O49686 1-191, looked up, variant P88Y) Abscisic acid receptor PYR1: MPSELTPEERSELKNSIAEFHTYQLDPGSCSSLHAQRIHAPPELVWSIVRRFDKPQTYKHFIKSCSVEQNFEMRVGCTRDVIVISGLYANTSTERLDILDDERRVTGFSIIGGEHRLTNYKSVTTVHRFEKENRIWTVVLESYVVDMPEGNSEDDTRMFADTVVKLNLQKLATVAEAMARNSGDGSGSQVT	x
P88D: PYR1 mutant (protein, UniProt O49686 1-191, looked up, variant P88D) Abscisic acid receptor PYR1: MPSELTPEERSELKNSIAEFHTYQLDPGSCSSLHAQRIHAPPELVWSIVRRFDKPQTYKHFIKSCSVEQNFEMRVGCTRDVIVISGLDANTSTERLDILDDERRVTGFSIIGGEHRLTNYKSVTTVHRFEKENRIWTVVLESYVVDMPEGNSEDDTRMFADTVVKLNLQKLATVAEAMARNSGDGSGSQVT	x
P88E: PYR1 mutant (protein, UniProt O49686 1-191, looked up, variant P88E) Abscisic acid receptor PYR1: MPSELTPEERSELKNSIAEFHTYQLDPGSCSSLHAQRIHAPPELVWSIVRRFDKPQTYKHFIKSCSVEQNFEMRVGCTRDVIVISGLEANTSTERLDILDDERRVTGFSIIGGEHRLTNYKSVTTVHRFEKENRIWTVVLESYVVDMPEGNSEDDTRMFADTVVKLNLQKLATVAEAMARNSGDGSGSQVT	x
P88F: PYR1 mutant (protein, UniProt O49686 1-191, looked up, variant P88F) Abscisic acid receptor PYR1: MPSELTPEERSELKNSIAEFHTYQLDPGSCSSLHAQRIHAPPELVWSIVRRFDKPQTYKHFIKSCSVEQNFEMRVGCTRDVIVISGLFANTSTERLDILDDERRVTGFSIIGGEHRLTNYKSVTTVHRFEKENRIWTVVLESYVVDMPEGNSEDDTRMFADTVVKLNLQKLATVAEAMARNSGDGSGSQVT	x
P88G: PYR1 mutant (protein, UniProt O49686 1-191, looked up, variant P88G) Abscisic acid receptor PYR1: MPSELTPEERSELKNSIAEFHTYQLDPGSCSSLHAQRIHAPPELVWSIVRRFDKPQTYKHFIKSCSVEQNFEMRVGCTRDVIVISGLGANTSTERLDILDDERRVTGFSIIGGEHRLTNYKSVTTVHRFEKENRIWTVVLESYVVDMPEGNSEDDTRMFADTVVKLNLQKLATVAEAMARNSGDGSGSQVT	x
P88H: PYR1 mutant (protein, UniProt O49686 1-191, looked up, variant P88H) Abscisic acid receptor PYR1: MPSELTPEERSELKNSIAEFHTYQLDPGSCSSLHAQRIHAPPELVWSIVRRFDKPQTYKHFIKSCSVEQNFEMRVGCTRDVIVISGLHANTSTERLDILDDERRVTGFSIIGGEHRLTNYKSVTTVHRFEKENRIWTVVLESYVVDMPEGNSEDDTRMFADTVVKLNLQKLATVAEAMARNSGDGSGSQVT	x
P88I: PYR1 mutant (protein, UniProt O49686 1-191, looked up, variant P88I) Abscisic acid receptor PYR1: MPSELTPEERSELKNSIAEFHTYQLDPGSCSSLHAQRIHAPPELVWSIVRRFDKPQTYKHFIKSCSVEQNFEMRVGCTRDVIVISGLIANTSTERLDILDDERRVTGFSIIGGEHRLTNYKSVTTVHRFEKENRIWTVVLESYVVDMPEGNSEDDTRMFADTVVKLNLQKLATVAEAMARNSGDGSGSQVT	x
P88K: PYR1 mutant (protein, UniProt O49686 1-191, looked up, variant P88K) Abscisic acid receptor PYR1: MPSELTPEERSELKNSIAEFHTYQLDPGSCSSLHAQRIHAPPELVWSIVRRFDKPQTYKHFIKSCSVEQNFEMRVGCTRDVIVISGLKANTSTERLDILDDERRVTGFSIIGGEHRLTNYKSVTTVHRFEKENRIWTVVLESYVVDMPEGNSEDDTRMFADTVVKLNLQKLATVAEAMARNSGDGSGSQVT	x
A89L: PYR1 mutant (protein, UniProt O49686 1-191, looked up, variant A89L) Abscisic acid receptor PYR1: MPSELTPEERSELKNSIAEFHTYQLDPGSCSSLHAQRIHAPPELVWSIVRRFDKPQTYKHFIKSCSVEQNFEMRVGCTRDVIVISGLPLNTSTERLDILDDERRVTGFSIIGGEHRLTNYKSVTTVHRFEKENRIWTVVLESYVVDMPEGNSEDDTRMFADTVVKLNLQKLATVAEAMARNSGDGSGSQVT	x
A89M: PYR1 mutant (protein, UniProt O49686 1-191, looked up, variant A89M) Abscisic acid receptor PYR1: MPSELTPEERSELKNSIAEFHTYQLDPGSCSSLHAQRIHAPPELVWSIVRRFDKPQTYKHFIKSCSVEQNFEMRVGCTRDVIVISGLPMNTSTERLDILDDERRVTGFSIIGGEHRLTNYKSVTTVHRFEKENRIWTVVLESYVVDMPEGNSEDDTRMFADTVVKLNLQKLATVAEAMARNSGDGSGSQVT	x
A89N: PYR1 mutant (protein, UniProt O49686 1-191, looked up, variant A89N) Abscisic acid receptor PYR1: MPSELTPEERSELKNSIAEFHTYQLDPGSCSSLHAQRIHAPPELVWSIVRRFDKPQTYKHFIKSCSVEQNFEMRVGCTRDVIVISGLPNNTSTERLDILDDERRVTGFSIIGGEHRLTNYKSVTTVHRFEKENRIWTVVLESYVVDMPEGNSEDDTRMFADTVVKLNLQKLATVAEAMARNSGDGSGSQVT	x
A89P: PYR1 mutant (protein, UniProt O49686 1-191, looked up, variant A89P) Abscisic acid receptor PYR1: MPSELTPEERSELKNSIAEFHTYQLDPGSCSSLHAQRIHAPPELVWSIVRRFDKPQTYKHFIKSCSVEQNFEMRVGCTRDVIVISGLPPNTSTERLDILDDERRVTGFSIIGGEHRLTNYKSVTTVHRFEKENRIWTVVLESYVVDMPEGNSEDDTRMFADTVVKLNLQKLATVAEAMARNSGDGSGSQVT	x
A89Q: PYR1 mutant (protein, UniProt O49686 1-191, looked up, variant A89Q) Abscisic acid receptor PYR1: MPSELTPEERSELKNSIAEFHTYQLDPGSCSSLHAQRIHAPPELVWSIVRRFDKPQTYKHFIKSCSVEQNFEMRVGCTRDVIVISGLPQNTSTERLDILDDERRVTGFSIIGGEHRLTNYKSVTTVHRFEKENRIWTVVLESYVVDMPEGNSEDDTRMFADTVVKLNLQKLATVAEAMARNSGDGSGSQVT	x
A89R: PYR1 mutant (protein, UniProt O49686 1-191, looked up, variant A89R) Abscisic acid receptor PYR1: MPSELTPEERSELKNSIAEFHTYQLDPGSCSSLHAQRIHAPPELVWSIVRRFDKPQTYKHFIKSCSVEQNFEMRVGCTRDVIVISGLPRNTSTERLDILDDERRVTGFSIIGGEHRLTNYKSVTTVHRFEKENRIWTVVLESYVVDMPEGNSEDDTRMFADTVVKLNLQKLATVAEAMARNSGDGSGSQVT	x
